Laboratory results reported in patent US20260158139A1, “CARD9 VARIANT POLYPEPTIDE AND ANTIBODIES DIRECTED THERETO” (The Broad Institute, Inc., priority 2023, published 2026).
Changes are numbered by the printed parent chain.

B1: Bcl10 (endogenous, in mouse BMDCs) (other, UniProt Q9Z0H7 1-233, looked up)
chain: MEAPAPSLTEEDLTEVKKDALENLRVYLCEKIIAERHFDHLRAKKILSREDTEEISCRTSSRKRAGKLLDYLQENPRGLDTLVESIRREKTQSFLIQKITDEVLKLRNIKLEHLKGLKCSSCEPFAAGATNNLSRCNSDESNLSEKQRASTVMYHPEGESSTAPFFSMASSLNLPVLEVGRTENSSFSSATLPRPGDPGAPPLPPDLRLEEGGSCGNSSEMFLPLRSRALSRQ

What was measured:
[1] = system: T1, CARD9 FL overexpressed in HEK 293T cells
T1 sequence (Q9H257 1-536, species assumed, looked up): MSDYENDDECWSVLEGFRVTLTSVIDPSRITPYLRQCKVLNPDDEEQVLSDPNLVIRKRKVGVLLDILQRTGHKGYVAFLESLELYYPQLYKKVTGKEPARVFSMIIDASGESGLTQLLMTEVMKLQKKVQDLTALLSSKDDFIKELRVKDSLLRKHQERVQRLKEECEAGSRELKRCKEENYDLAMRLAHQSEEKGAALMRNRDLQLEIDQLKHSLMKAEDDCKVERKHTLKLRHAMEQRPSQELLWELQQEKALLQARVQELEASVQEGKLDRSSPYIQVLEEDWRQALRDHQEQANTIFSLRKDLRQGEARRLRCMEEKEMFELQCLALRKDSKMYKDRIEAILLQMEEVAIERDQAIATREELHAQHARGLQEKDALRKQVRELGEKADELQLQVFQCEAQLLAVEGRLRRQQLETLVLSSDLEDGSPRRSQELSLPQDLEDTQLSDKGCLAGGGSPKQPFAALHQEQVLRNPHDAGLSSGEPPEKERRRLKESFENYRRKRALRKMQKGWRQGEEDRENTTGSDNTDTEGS

[2] = system: T2, CARD9 R101C overexpressed in HEK 293T cells
T2 sequence (Q9H257 1-536 with R101C, species assumed, looked up): T1 sequence (Q9H257 1-536, species assumed, looked up) with R101C

[3] = system: T3, CARD9 S104N overexpressed in HEK 293T cells
T3 sequence (Q9H257 1-536 with S104N, species assumed, looked up): T1 sequence (Q9H257 1-536, species assumed, looked up) with S104N

[4] = target: T4, CARD9 R101C (endogenous knock-in variant, in CARD9 R101C mouse BMDCs) (Mus musculus, UniProt A2AIV8 1-536); assay: Bcl10 immunoprecipitation from HKCA-stimulated BMDCs, western blot
T4 construct: CRISPR knock-in mouse; The protein stood in lysates of HKCA-stimulated BMDCs
T4 sequence: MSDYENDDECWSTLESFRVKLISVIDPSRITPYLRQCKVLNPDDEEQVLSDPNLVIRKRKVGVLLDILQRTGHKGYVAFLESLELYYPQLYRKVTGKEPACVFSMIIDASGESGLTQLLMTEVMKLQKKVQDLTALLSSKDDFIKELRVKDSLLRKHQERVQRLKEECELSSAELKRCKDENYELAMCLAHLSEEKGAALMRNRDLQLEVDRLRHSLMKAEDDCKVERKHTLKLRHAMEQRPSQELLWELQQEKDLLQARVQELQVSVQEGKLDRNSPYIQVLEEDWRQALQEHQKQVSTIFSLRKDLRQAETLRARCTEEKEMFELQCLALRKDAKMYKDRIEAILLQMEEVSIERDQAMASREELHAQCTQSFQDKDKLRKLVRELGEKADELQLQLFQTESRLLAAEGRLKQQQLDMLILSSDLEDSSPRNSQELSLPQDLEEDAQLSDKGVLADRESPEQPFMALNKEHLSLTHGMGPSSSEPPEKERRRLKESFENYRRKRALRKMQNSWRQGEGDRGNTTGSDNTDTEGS
Experimental: (§1) Lysate was incubated for 30 min and centrifuged at 2000 rpm for 10 min at 4° C. 50 μl of the supernatant was collected as whole cell lysate (WCL) fraction. Remaining supernatant was collected and incubated overnight with 10 al/sample of CARD9 antibody (Cell Signaling Technology #12283S) at 4° C. while rotating. The next day, 50 μl of Dynabeads Protein G beads (Life Technologies #10004D) were added and incubated for 1 h rotating at 4° C. Immunoprecipitates were washed 3× with standard lysis buffer and resuspended in 25 μl of 2× Laemmli buffer (BioRad #1610737) supplemented with 5% R-mercaptoethanol followed by boiling for 10 min at 75° C. For Bcl10 IP to detect CBM complex formation, cell pellets were resuspended in lysis buffer (PBS, 0.5% NP-40) supplemented with 1× Halt Protease & Phosphatase Inhibitor Single-Use Cocktail and Pierce Universal Nuclease and kept on ice for 10 min. Lysate was centrifuged for 10 min at 2000 rpm at 4° C. 50 μl of the supernatant was collected as whole cell lysate (WCL) fraction. Remaining supernatant was incubated overnight with 200 al/sample of Bcl10 antibody (Santa Cruz Biotechnology #sc-5273) at 4° C. rotating. The next day, 50 μl of Dynabeads Protein G beads were added and incubated for 1 h rotating at 4° C. […]

[5] = target: T5, CARD9 (endogenous, in WT mouse BMDCs) (Mus musculus, UniProt A2AIV8 1-536); assay: Bcl10 immunoprecipitation from HKCA-stimulated BMDCs, western blot for CARD9
T5 construct: Endogenous protein in lysates of HKCA-stimulated WT mouse BMDCs; also called WT CARD9
T5 sequence: T4 sequence with C101R
Experimental: as §1

Molecule	in vitro phosphorylation assay (western blot) [1]	in vitro phosphorylation assay (western blot) [2]	in vitro phosphorylation assay (western blot) [3]	binding result [4]	binding result [5]
purified PKCδ (Promega PKCδ Kinase Enzyme System #V3401)	PKCd does indeed phosphorylate S104	this phosphorylation requires an intact RXXS motif in the linker domain	this phosphorylation requires an intact RXXS motif in the linker domain	–	–
B1	–	–	–	no binding	binds
